{"source": "patent US20210371461", "proteins": {"B1": {"name": "factor XIIa (protein)", "chain": "IPPWEAPKEHKYKAEEHTVVLTVTGEPCHFPFQYHRQLYHKCTHKGRPGPQPWCATTPNFDQDQRWGYCLEPKKVKDHCSKHSPCQKGGTCVNMPSGPHCLCPQHLTGNHCQKEKCFEPQLLRFFHKNEIWYRTEQAAVARCQCKGPDAHCQRLASQACRTNPCLHGGRCLEVEGHRLCHCPVGYTGAFCDVDTKASCYDGRGLSYRGLARTTLSGAPCQPWASEATYRNVTAEQARNWGLGGHAFCRNPDNDIRPWCFVLNRDRLSWEYCDLAQCQTPTQAAPPTPVSPRLHVPLMPAQPAPPKPQPTTRTPPQSQTPGALPAKREQPPSLTRNGPLSCGQRLRKSLSSMTRVVGGLVALRGAHPYIAALYWGHSFCAGSLIAPCWVLTAAHCLQDRPAPEDLTVVLGQERRNHSCEPCQTLAVRSYRLHEAFSPVSYQHDLALLRLQEDADGSCALLSPYVQPVCLPSGAARPSETTLCQVAGWGHQFEGAEEYASFLQEAQVPFLSLERCSAPDVHGSSILPGMLCAGFLEGGTDACQGDSGGPLVCEDQAAERRLTLQGIISWGSGCGDRNKPGVYTDVAYYLAWIREHTVS"}, "B2": {"name": "plasmin (protein)", "chain": "KVYLSECKTGNGKNYRGTMSKTKNGITCQKWSSTSPHRPRFSPATHPSEGLEENYCRNPDNDPQGPWCYTTDPEKRYDYCDILECEEECMHCSGENYDGKISKTMSGLECQAWDSQSPHAHGYIPSKFPNKNLKKNYCRNPDRELRPWCFTTDPNKRWELCDIPRCTTPPPSSGPTYQCLKGTGENYRGNVAVTVSGHTCQHWSAQTPHTHNRTPENFPCKNLDENYCRNPDGKRAPWCHTTNSQVRWEYCKIPSCDSSPVSTEQLAPTAPPELTPVVQDCYHGDGQSYRGTSSTTTTGKKCQSWSSMTPHRHQKTPENYPNAGLTMNYCRNPDADKGPWCFTTDPSVRWEYCNLKKCSGTEASVVAPPPVVLLPDVETPSEEDCMFGNGKGYRGKRATTVTGTPCQDWAAQEPHRHSIFTPETNPRAGLEKNYCRNPDGDVGGPWCYTTNPRKLYDYCDVPQCAAPSFDCGKPQVEPKKCPGRVVGGCVAHPHSWPWQVSLRTRFGMHFCGGTLISPEWVLTAAHCLEKSPRPSSYKVILGAHQEVNLEPHVQEIEVSRLFLEPTRKDIALLKLSSPAVITDKVIPACLPSPNYVVADRTECFITGWGETQGTFGAGLLKEAQLPVIENKVCNRYEFLNGRVQSTELCAGHLAGGTDSCQGDSGGPLVCFEKDKYILQGVTSWGLGCARPNKPGVYVRVSRFVTWIEGVMRNN"}, "B3": {"name": "tissue-type plasminogen activator (protein)", "chain": "SYQVICRDEKTQMIYQQHQSWLRPVLRSNRVEYCWCNSGRAQCHSVPVKSCSEPRCFNGGTCQQALYFSDFVCQCPEGFAGKCCEIDTRATCYEDQGISYRGTWSTAESGAECTNWNSSALAQKPYSGRRPDAIRLGLGNHNYCRNPDRDSKPWCYVFKAGKYSSEFCSTPACSEGNSDCYFGNGSAYRGTHSLTESGASCLPWNSMILIGKVYTAQNPSAQALGLGKHNYCRNPDGDAKPWCHVLKNRRLTWEYCDVPSCSTCGLRQYSQPQFRIKGGLFADIASHPWQAAIFAKHRRSPGERFLCGGILISSCWILSAAHCFQERFPPHHLTVILGRTYRVVPGEEEQKFEVEKYIVHKEFDDDTYDNDIALLQLKSDSSRCAQESSVVRTVCLPPADLQLPDWTECELSGYGKHEALSPFYSERLKEAHVRLYPSSRCTSQHLLNRTVTDNMLCAGDTRSGGPQANLHDACQGDSGGPLVCLNDGRMTLVGIISWGLGCGQKDVPGVYTKVTNYLDWIRDNMRP"}}, "target": "T1, MePEG2-IEGR (TFA salt)", "T1 chain": "IEGR", "data": [{"protein": "B1", "values": [{"measurement": "luminescence signal (RLU) from substrate cleavage, 145 nM enzyme", "value": 145, "unit": "nM FXlla yielded ˜500 RLU"}]}, {"protein": "B2", "values": [{"measurement": "luminescence signal (RLU) from substrate cleavage, 8 nM enzyme", "value": "8 nM plasmin yielded ˜8.000 RLU"}]}, {"protein": "B3", "values": [{"measurement": "luminescence signal (RLU) from substrate cleavage, 193 IU/mL enzyme", "value": "193 IU/mL tPA yielded ˜6.000 RLU"}]}]}
